From WO2022138911A1 (dated 2022)

B1: purified recombinant 7G7.1 antibody (antibody, human IgG1, lambda)
heavy: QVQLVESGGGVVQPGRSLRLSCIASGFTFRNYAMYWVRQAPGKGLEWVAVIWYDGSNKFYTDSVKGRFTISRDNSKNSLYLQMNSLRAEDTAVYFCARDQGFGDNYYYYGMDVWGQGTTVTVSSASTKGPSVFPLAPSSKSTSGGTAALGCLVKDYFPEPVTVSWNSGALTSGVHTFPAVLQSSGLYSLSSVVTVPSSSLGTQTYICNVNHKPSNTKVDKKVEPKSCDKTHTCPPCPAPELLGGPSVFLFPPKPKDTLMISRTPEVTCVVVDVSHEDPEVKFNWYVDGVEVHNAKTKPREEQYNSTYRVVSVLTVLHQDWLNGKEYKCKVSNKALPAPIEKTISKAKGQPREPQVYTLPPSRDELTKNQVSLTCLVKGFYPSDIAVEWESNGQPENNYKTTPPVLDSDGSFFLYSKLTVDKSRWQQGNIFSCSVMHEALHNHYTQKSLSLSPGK
light: SYELTQPPSVSVSPGQTARISCSGDALPKEYAYWYQQKPGQAPVLVIYKDSERPSGIPERFSGSSSGTTVTLTISGVQAEDEADYYCQLADSSMHYVVFGGGTKLTVLGQPKAAPSVTLFPPSSEELQANKATLVCLISDFYPGAVTVAWKADSSPVKAGVETTTPSKQSNNKYAASSYLSLTPEQWKSHRSYSCQVTHEGSTVEKTVAPTECS
B2: purified recombinant 7G7.2 antibody (antibody, human IgG1, kappa)
heavy: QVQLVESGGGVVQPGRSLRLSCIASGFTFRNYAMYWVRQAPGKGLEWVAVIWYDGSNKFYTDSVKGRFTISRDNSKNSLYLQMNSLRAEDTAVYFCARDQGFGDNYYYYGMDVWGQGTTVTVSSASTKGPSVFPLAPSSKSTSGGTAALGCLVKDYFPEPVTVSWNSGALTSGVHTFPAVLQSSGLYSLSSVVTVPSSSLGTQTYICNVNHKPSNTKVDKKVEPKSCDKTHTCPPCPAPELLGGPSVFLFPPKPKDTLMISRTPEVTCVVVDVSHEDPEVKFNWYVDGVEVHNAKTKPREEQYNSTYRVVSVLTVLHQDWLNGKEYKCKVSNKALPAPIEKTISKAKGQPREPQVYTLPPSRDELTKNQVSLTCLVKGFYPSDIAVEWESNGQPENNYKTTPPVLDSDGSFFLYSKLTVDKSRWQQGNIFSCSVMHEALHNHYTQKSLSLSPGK
light: SYELTQPPSVSVSPGQTARISCSGDALPKEYAYWYQQKPGQAPVLVIYKDSERPSGIPERFSGSSSGTTVTLTISGVQAEDEADYYCQLADSSMHYVVFGGGTKLTVLRTVAAPSVFIFPPSDEQLKSGTASVVCLLNNFYPREAKVQWKVDNALQSGNSQESVTEQDSKDSTYSLSSTLTLSKADYEKHKVYACEVTHQGLSSPVTKSFNRGEC

Molecular target: SARS-CoV2 Spike protein (ECD, His & Flag Tag) (GenScript, Z03481) (135 kDa) (SARS-CoV2 virus, UniProt P0DTC2 14-1213)

Row | Binder | Kd [nM]
1 | B1 | 2.04
2 | B2 | 1.55
